The results in this text go back to publication PMC12839305 (2025).

This assay has as its target T1, RVFV glycoprotein Gn head domain (154–469 aa) (Rift Valley fever virus, UniProt P21401 154-469).
T1 chain: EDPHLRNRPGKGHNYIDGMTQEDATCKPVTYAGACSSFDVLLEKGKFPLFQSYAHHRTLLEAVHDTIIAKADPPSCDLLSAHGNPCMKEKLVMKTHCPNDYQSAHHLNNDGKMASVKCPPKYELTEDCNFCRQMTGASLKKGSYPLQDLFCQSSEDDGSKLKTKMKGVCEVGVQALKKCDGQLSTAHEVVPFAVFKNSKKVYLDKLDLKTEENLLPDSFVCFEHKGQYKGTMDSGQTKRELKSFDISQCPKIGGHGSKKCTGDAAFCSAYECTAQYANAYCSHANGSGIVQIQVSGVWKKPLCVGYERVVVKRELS
The assay is described as follows: BLI.

B1: LRP1 single complement-type repeat CR25 fused to human Fc (Fc fusion)
chain: not shown
As a reminder, the Kd is the equilibrium constant for the complex coming apart. Read a low Kd as tighter binding. On to B1, for which the dissociation constant (Kd) came to 67 nM.
